Patent publication US20080242608

Biological target: T1, GST-FOXO3 peptide P2 (amino acids 154-259), O43524
T1 chain: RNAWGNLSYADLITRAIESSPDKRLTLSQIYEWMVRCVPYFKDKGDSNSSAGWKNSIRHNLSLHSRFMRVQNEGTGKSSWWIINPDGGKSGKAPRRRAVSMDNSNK

B1: FLAG-MST1 (protein)
chain: METVQLRNPPRRQLKKLDEDSLTKQPEEVFDVLEKLGEGSYGSVYKAIHKETGQIVAIKQVPVESDLQEIIKEISIMQQCDSPHVVKYYGSYFKNTDLWIVMEYCGAGSVSDIIRLRNKTLTEDEIATILQSTLKGLEYLHFMRKIHRDIKAGNILLNTEGHAKLADFGVAGQLTDTMAKRNTVIGTPFWMAPEVIQEIGYNCVADIWSLGITAIEMAEGKPPYADIHPMRAIFMIPTNPPPTFRKPELWSDNFTDFVKQCLVKSPEQRATATQLLQHPFVRSAKGVSILRDLINEAMDVKLKRQESQQREVDQDDEENSEEDEMDSGTMVRAVGDEMGTVRVASTMTDGANTMIEHDDTLPSQLGTMVINAEDEEEEGTMKRRDETMQPAKPSFLEYFEQKEKENQINSFGKSVPGPLKNSSDWKIPQDGDYEFLKSWTVEDLQKRLLALDPMMEQEIEEIRQKYQSKRQPILDAIEAKKRRQQNF
in vitro kinase assay (phosphorylation of GST-FOXO3 peptides): MST1 robustly phosphorylated the P2 fragment
